Target: His-tagged human IL-18BP (human) (UniProt O95998)
Test: alphaLISA of free IL-18BP

His-tagged human IL-18BP (human), sequence (O95998 31-194): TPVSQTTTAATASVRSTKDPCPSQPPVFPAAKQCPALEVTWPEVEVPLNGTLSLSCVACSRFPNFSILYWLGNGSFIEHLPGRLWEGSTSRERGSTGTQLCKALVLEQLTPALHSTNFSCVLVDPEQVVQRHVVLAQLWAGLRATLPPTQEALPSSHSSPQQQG
IL-18 polypeptide of SEQ ID NO: 1 (native sequence, human IL-18 37-193), sequence (Q14116 37-193): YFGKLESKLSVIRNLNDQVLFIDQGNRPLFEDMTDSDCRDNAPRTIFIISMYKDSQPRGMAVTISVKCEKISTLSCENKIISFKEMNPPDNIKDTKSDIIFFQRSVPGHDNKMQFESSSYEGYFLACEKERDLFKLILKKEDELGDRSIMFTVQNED

| Kd [nM] | Substance |
| --- | --- |
| 514 | Modified IL-18 polypeptide of SEQ ID NO: 4 (K53A) (from UniProt Q14116 37-193) (ligand) |
| 340 | Modified IL-18 polypeptide of SEQ ID NO: 18 (E06K, K53A, T63A) (from UniProt Q14116 37-193) (ligand) |
| 10.7 | Modified IL-18 polypeptide of SEQ ID NO: 5 (S55A) (from UniProt Q14116 37-193) (ligand) |
| 436 | Modified IL-18 polypeptide of SEQ ID NO: 70 (E6K, K53A, C38S, C76S, C127S) (from UniProt Q14116 37-193) (ligand) |
| 0.83 | Modified IL-18 polypeptide of SEQ ID NO: 20 (E06K, T63A) (from UniProt Q14116 37-193) (ligand) |
| 50.2 | Modified IL-18 polypeptide of SEQ ID NO: 71 (E6K, C38S, K53A) (from UniProt Q14116 37-193) (ligand) |
| 130 | Modified IL-18 polypeptide of SEQ ID NO: 7 (E06K, K53A) (from UniProt Q14116 37-193) (ligand) |
| 198 | Modified IL-18 polypeptide of SEQ ID NO: 21 (K53A, T63A) (from UniProt Q14116 37-193) (ligand) |
| 0.03 | Modified IL-18 polypeptide of SEQ ID NO: 15 (C38S, C68S, C76S, C127S) (from UniProt Q14116 37-193) (ligand) |
| 969 | Modified IL-18 polypeptide of SEQ ID NO: 3 (Y01G, F02A, E06K, M51G, K53A, D54A, S55A, T63A) (from UniProt Q14116 37-193) (ligand) |
| 822 | Modified IL-18 polypeptide of SEQ ID NO: 10 (E06K, K53A, S55A, T63A) (from UniProt Q14116 37-193) (ligand) |
| 446 | Modified IL-18 polypeptide of SEQ ID NO: 22 (E06K, K53A, C38S, C68S, C76S, C127S, K70C) (from UniProt Q14116 37-193) (ligand) |
| 500 | Modified IL-18 polypeptide of SEQ ID NO: 9 (K53A, S55A) (from UniProt Q14116 37-193) (ligand) |
| 2.59 | Modified IL-18 polypeptide of SEQ ID NO: 19 (T63A) (from UniProt Q14116 37-193) (ligand) |
| 913 | Modified IL-18 polypeptide of SEQ ID NO: 23 (K53A, T63A, C38S, C68S, C76S, C127S, K70C) (from UniProt Q14116 37-193) (ligand) |
| 0.13 | Modified IL-18 polypeptide of SEQ ID NO: 6 (E06K) (from UniProt Q14116 37-193) (ligand) |
| 0.67 | IL-18 polypeptide of SEQ ID NO: 1 (native sequence, human IL-18 37-193) (from UniProt Q14116 37-193) (ligand) |
| 0.21 | Modified IL-18 polypeptide of SEQ ID NO: 16 (C38S, C68S, C76S, C127S, K70C) (from UniProt Q14116 37-193) (ligand) |
| 12.3 | Modified IL-18 polypeptide of SEQ ID NO: 8 (E06K, S55A) (from UniProt Q14116 37-193) (ligand) |
| 59.1 | Modified IL-18 polypeptide of SEQ ID NO: 71 with a 30 kDa PEG attached at residue C68 (E6K, C38S, K53A, C68-30kDPEG) (from UniProt Q14116 37-193) (ligand) |
